Results: publication doi:10.1101/2023.10.24.563883

Biological target: LPHN2-ICL1-Nluc (UniProt O95490)
Assay: FRET or BRET

Sequence of LPHN2-ICL1-Nluc (O95490 26-1459): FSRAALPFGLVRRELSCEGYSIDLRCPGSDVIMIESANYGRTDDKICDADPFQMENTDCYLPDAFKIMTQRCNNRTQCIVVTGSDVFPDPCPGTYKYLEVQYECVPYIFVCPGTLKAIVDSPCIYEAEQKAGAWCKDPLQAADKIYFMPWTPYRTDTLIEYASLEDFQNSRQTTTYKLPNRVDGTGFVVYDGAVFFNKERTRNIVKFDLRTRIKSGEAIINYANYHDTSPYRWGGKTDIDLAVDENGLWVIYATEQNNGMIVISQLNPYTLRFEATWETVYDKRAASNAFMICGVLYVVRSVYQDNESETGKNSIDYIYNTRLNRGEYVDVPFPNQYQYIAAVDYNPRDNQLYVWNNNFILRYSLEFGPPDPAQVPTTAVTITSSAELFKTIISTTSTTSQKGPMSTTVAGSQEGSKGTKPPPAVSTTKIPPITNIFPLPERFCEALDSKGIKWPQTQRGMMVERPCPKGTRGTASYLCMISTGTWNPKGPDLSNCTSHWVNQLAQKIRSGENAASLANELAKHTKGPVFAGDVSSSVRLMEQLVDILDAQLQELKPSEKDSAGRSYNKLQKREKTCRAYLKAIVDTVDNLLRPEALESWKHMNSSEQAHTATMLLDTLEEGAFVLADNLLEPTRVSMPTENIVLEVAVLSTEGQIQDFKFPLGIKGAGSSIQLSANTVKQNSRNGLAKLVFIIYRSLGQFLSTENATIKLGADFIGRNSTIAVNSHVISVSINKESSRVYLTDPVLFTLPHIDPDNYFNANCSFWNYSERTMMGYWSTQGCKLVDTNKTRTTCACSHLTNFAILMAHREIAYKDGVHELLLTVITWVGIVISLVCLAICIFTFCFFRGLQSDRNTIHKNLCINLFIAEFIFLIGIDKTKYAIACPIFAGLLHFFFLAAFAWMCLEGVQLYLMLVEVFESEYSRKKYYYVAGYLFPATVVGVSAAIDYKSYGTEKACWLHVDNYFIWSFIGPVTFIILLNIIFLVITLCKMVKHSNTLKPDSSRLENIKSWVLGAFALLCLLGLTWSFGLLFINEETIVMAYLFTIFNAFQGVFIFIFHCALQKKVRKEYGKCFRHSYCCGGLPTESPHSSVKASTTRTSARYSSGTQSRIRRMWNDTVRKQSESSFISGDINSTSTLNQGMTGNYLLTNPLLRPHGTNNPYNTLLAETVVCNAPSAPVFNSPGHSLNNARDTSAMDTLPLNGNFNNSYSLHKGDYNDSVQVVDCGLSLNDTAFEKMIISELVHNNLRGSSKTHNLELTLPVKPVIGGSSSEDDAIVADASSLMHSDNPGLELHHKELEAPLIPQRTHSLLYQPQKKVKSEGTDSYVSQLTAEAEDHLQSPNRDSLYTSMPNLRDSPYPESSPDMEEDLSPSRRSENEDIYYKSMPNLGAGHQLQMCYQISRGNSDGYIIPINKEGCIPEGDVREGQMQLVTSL

EC50 of force for the increase of the BRET signal: 5.2 pN | stoichiometry N (TMC1 per LPHN2): 2
Substance: TMC1-C-YFP (from UniProt Q8TDI8 1-760) (natural protein)
